{"source": "paper doi:10.1101/2021.09.13.460076", "biological_target": "dimeric human ACE2 fused to Fc domain of human IgG (human) (UniProt Q9BYF1)", "sequence (Q9BYF1 18-740)": "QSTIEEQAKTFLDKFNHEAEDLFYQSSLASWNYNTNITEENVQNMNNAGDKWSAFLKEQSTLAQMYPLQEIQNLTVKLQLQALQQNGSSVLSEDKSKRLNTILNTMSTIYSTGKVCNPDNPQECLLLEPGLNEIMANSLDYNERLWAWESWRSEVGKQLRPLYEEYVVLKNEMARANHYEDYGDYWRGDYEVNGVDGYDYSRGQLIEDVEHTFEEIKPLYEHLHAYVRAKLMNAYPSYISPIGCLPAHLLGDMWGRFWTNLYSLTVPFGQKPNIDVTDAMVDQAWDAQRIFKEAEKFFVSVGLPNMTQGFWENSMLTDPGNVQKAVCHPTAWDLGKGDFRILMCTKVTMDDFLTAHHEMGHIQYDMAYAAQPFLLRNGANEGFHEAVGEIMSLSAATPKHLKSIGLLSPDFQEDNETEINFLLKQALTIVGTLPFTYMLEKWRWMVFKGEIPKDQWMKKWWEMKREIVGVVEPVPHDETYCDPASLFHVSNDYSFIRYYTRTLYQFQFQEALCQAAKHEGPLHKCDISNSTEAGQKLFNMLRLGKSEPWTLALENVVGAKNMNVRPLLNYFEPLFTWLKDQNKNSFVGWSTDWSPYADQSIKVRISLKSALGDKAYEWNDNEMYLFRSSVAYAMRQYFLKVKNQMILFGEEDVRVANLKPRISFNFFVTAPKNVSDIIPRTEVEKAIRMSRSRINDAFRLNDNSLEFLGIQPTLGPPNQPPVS", "assay": "SPR"}
{"substance": "ADDomer particle decorated with SARS-CoV-2 RBD (ADD-RBD) (from UniProt Q2Y0H9 1-544; P0DTC2 320-554) (complex)", "values": [{"measurement": "Kd", "result": 0.309, "unit": "nM"}]}
